{"source": "paper PMC5303273", "about": "“Rab1 interacts with GOLPH3 and controls Golgi structure and contractile ring constriction during cytokinesis in Drosophila melanogaster” (Open Biology, 2017)", "binders": {"B1": {"name": "GST-Rab1 (natural protein)", "chain": "not shown", "notes": "full-length cDNA of Drosophila Rab1 cloned into pGEX-6p-2; In the direct pull-down the protein on the beads was loaded with GDP-beta-S or GMP-PNP; also called GST-full-length Drosophila Rab1; source: BL21-CodonPlus (DE3), purified (Glutathione-Sepharose 4B beads)"}}, "target": "T1, 6XHis-GOLPH3 (Drosophila melanogaster, UniProt Q9VQ93 1-294)", "T1 construct": "Drosophila GOLPH3 made with the pET Directional TOPO Expression kit; also called 6XHis-tagged GOLPH3; recombinant GOLPH3; source: recombinant (pET Directional TOPO Expression kit), purified (cOmplete His-Tag Purification Resin)", "T1 sequence (Q9VQ93 whole entry)": "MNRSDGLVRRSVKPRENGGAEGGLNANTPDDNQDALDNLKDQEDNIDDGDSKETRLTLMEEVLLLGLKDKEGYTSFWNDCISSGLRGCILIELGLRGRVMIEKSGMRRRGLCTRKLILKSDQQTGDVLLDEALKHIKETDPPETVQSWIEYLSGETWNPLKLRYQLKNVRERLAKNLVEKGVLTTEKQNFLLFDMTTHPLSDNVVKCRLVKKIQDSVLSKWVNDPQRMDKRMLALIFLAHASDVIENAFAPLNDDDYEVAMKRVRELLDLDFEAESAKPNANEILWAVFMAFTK", "experiment": "pull-down; GST-Rab protein on glutathione beads loaded with GMP-PNP (GTP), incubated with recombinant 6XHis-GOLPH3 for 5 h at 4°C; blot with anti-6XHis", "conditions": "both partners purified"}
{"binder": "B1", "values": [{"measurement": "binding result", "result": "binds"}]}
